Measurements published in the RNAGym collection of RNA variant scans (doi:10.7554/elife.80360).

B1: Hairpin Ribozyme (parent)
chain: GUCCUCUUUCACGUGCGCGUGAAAGAGAGAAGUGAACCAGAGAAACACACGUUGUGGUAUAUUACCUGGUA

Variants of: B1
Assay: self-cleavage, relative activity (ratio to wild type); higher = more cleavage; co-transcriptional

Variant | self-cleavage
GUCCUCUUUAACGUGCGCGUGAAAGAGAGAAGUGAACCAGAGAAACACACGCUGUGGUAUAUUACCUGGUA | 0.81
GUCCUCUUUAACGUGCGCGUGAAAGAGAGAAGUGAACCAGAGAAACACACGAUGUGGUAUAUUACCUGGUA | 0.783
GUCCUCUUGCACGUGCGCGUGAAAGAGAGAAGGGAACCAGAGAAACACACGUUGUGGUAUAUUACCUGGUA | 0.145
GUCCUCUUUAACGUGCGCGUGAAAGAGAGAAGUGAACCAAAGAAACACACGUUGUGGUAUAUUACCUGGUA | 0.219
GUCCUCUUUAACGUGCGCGUGAAAGAGAGAAGUGAACCAUAGAAACACACGUUGUGGUAUAUUACCUGGUA | 0.141
GUCCUCUUUAACGUGCGCGUGAAAGAGAGAAGUGAACCAGAGACACACACGUUGUGGUAUAUUACCUGGUA | 0.141
GUCCUCUUUAACGUGCGCGUGAAAGAGAGAAGUGAACCAGAGAUACACACGUUGUGGUAUAUUACCUGGUA | 0.139
GUCCUCUUUAACGUGCGCGUGAAAGAGAGAAGUGAACCAGAGAAACCCACGUUGUGGUAUAUUACCUGGUA | 0.334
GUCCUCUUUAACGUGCGCGUGAAAGAGAGAAGUGAACCAGAGAAACACACGUCGUGGUAUAUUACCUGGUA | 0.888
GUCCUCUUUAACGUGCGCGUGAAAGAGAGAAGUGAACCAGAGAAACACACGUAGUGGUAUAUUACCUGGUA | 0.678
GUCCUCUUUAACGUGCGCGUGAAAGAGGGAAGUGAACCAGAGAAACACACGUUGUGGUAUAUUACCUGGUA | 1.09
GUCCUCUUUAACGUGCGCGUGAAAGAGUGAAGUGAACCAGAGAAACACACGUUGUGGUAUAUUACCUGGUA | 0.483
GUCCUCUUUAACGUGCGCGUGAAAGAGAGAAGUGAACCAGAGAAACACACGUUAUGGUAUAUUACCUGGUA | 0.338
GUCCUCUUUAACGUGCGCGUGAAAGAGAGAAGUGAACCAGAGAAACACACGUUUUGGUAUAUUACCUGGUA | 0.426
GUCCUCUUGCACGAGCGCGUGAAAGAGAGAAGUGAACCAGAGAAACACACGUUGUGGUAUAUUACCUGGUA | 0.612
GUCCUCUUGCACGUGCGCGUGAAAGAGAGAAGUGAACCAGAGAAACACACGUUGGGGUAUAUUACCUGGUA | 0.0748
GUCCUCUUUAACGUGCGCGUGAAAGAGAGAAGUGAACCAGACAAACACACGUUGUGGUAUAUUACCUGGUA | 0.235
GUCCUCUUUAACGUGCGCGUGAAAGAGAGAAGUGAACCAGAUAAACACACGUUGUGGUAUAUUACCUGGUA | 0.268
GUCCUCUUUAACAUGCGCGUGAAAGAGAGAAGUGAACCAGAGAAACACACGUUGUGGUAUAUUACCUGGUA | 0.501

Variant | self-cleavage
GUCCUCUUUAACCUGCGCGUGAAAGAGAGAAGUGAACCAGAGAAACACACGUUGUGGUAUAUUACCUGGUA | 0.411
GUCCUCUUUAUCGUGCGCGUGAAAGAGAGAAGUGAACCAGAGAAACACACGUUGUGGUAUAUUACCUGGUA | 0.41
GUCCUCUUUAACGUGCGCGUGAAAGAGAGAAGUGAACCAGAGAAACACACGUUGUGGUCUAUUACCUGGUA | 0.192
GUCCUCUUUAACGUGCGCGUGAAAGAGAGAAGUGAACCAGAGAAACACACGUUGUGGUGUAUUACCUGGUA | 0.149
GUCCUCUUGCACGUGCGCGUGAAAGAGAGAAGUGAACCAGAGAAACACACGUUGUGGUAUAUGACCUGGUA | 0.206
GUCCUCUUGCACGUGCGCGUGAAAGAGAGAAGUGAACCAGAGAAACACACGUUGUGGUAUAUCACCUGGUA | 0.094
GUCCUCUUGCACGUGCGCGUGAAAGAGAGAAGUGAACCAGAGAAACACACGUUGUGGAAUAUUACCUGGUA | 0.549
GUCCUCUUUAACGUGCGCGUGAAAGAGAGAAGUGAACCAGAGAAACACACGUUGUGGUAUAUUACCUUGUA | 0.201
GUCCUCUUUAACGUGCGAGUGAAAGAGAGAAGUGAACCAGAGAAACACACGUUGUGGUAUAUUACCUGGUA | 0.708
GUCCUCUUUAACGUGCGGGUGAAAGAGAGAAGUGAACCAGAGAAACACACGUUGUGGUAUAUUACCUGGUA | 0.791
GUCCUCUUUAACGUGCGUGUGAAAGAGAGAAGUGAACCAGAGAAACACACGUUGUGGUAUAUUACCUGGUA | 0.809
GUCCUCUUGCACGUGCGCGUGAAAGAGAGAAGUGAACCAGAGAAACACACGUUGUGGUAUAUUACCUAGUA | 0.247
GUCCUCUUGCACGUGCGCGUGAAAGAGAGAAGUGAACCAGAGAAACACACGUCGUGGUAUAUUACCUGGUA | 0.736
GUCCUCUUGCACGUGCGCGUGAAAGAGAGAAGUGAACCAGAGAAACACACGUAGUGGUAUAUUACCUGGUA | 0.672
GUCCUCUUUAACGUGCGCGUGAAAGAGAGAAGUGAACCAGAGAAACACACGUUGUGUUAUAUUACCUGGUA | 0.221
GUCCUCUUUAACGUGCGCGUGAAAGAGAGAAGUGAACCAGAGAAACACACGUUGUGCUAUAUUACCUGGUA | 0.174
GUCCUCUUGCACGUGCGCGUGAAAGAGAGAAGUGAACCAGAGAAACACACGUUGUGGUAUAUUACCGGGUA | 0.279
GUCCUCUUUAACGUGCGCGUGAAAGAGAGAAGUGAACCAGGGAAACACACGUUGUGGUAUAUUACCUGGUA | 0.694
GUCCUCUUUAACGUGCGCGUGAAAGAGAGAAGUGAACCCGAGAAACACACGUUGUGGUAUAUUACCUGGUA | 0.463
